The target in assay [1] is CD47 ECD (Homo sapiens, UniProt Q08722). The assay is described as follows: flow cytometry saturation binding on CD47-coated beads.
Assay [2] has as its target T1, CD47 ECD (Mus musculus, UniProt Q61735).
T1 chain: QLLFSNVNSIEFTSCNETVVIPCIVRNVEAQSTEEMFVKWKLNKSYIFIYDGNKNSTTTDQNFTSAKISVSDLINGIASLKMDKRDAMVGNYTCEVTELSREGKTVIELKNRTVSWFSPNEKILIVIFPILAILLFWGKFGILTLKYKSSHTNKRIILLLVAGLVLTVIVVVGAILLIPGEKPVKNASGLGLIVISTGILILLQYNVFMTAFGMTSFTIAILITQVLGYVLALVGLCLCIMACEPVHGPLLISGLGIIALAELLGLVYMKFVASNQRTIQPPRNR
The description is as above.

Sequence of CD47 ECD (Homo sapiens, UniProt Q08722) (Q08722 19-323): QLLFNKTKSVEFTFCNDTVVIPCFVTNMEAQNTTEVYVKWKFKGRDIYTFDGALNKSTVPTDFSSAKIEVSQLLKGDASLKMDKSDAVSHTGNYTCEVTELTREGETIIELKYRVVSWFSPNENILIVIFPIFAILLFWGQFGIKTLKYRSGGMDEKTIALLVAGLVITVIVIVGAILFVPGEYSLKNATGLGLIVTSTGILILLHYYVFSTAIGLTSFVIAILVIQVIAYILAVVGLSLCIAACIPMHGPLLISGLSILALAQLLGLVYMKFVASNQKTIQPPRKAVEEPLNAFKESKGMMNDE

B1: SIRPα (variant 129_IgV, GST fusion) ECD (protein)
chain: KELKVTQPEKSVSVAAGDSTVLNCTLTSLLPVGPIRWYRGVGPSRLLIYSFAGEYVPRIRNVSDTTKRNNMDFSIRISNVTPADAGIYYCVKFQKGSSEPDTEIQSGGGTEVYVLAKPSPPEVSGPADRGIPDQKVNFTCKSHGFSPRNITLKWFKDGQELHPLETTVNPSGKNVSYNISSTVRVVLNSMDVNSKVICEVAHITLDRSPLRGIANLSNFIRVSPTVKVTQQSPTSMNQVNLTCRAERFYPEDLQLIWLENGNVSRNDTPKNLTKNTDGTYNYTSLFLVNSSAHREDVVFTCQVKHDQQPAITRNHTVLGFAHSSDQGSMQTFPDNNATHNWN
Turning to B1, the equilibrium dissociation constant (Kd) with CD47 ECD [1] and in the assay with CD47 ECD [2] was 220 nM throughout.
